# Reference: the Human Domainome abundance scans (Beltran et al. 2025)
# ± gives the uncertainty stated by the source.
# B1: Membrane-associated guanylate kinase, WW and PDZ domain-containing protein 1, residues 352 to 401; numbered along this chain, Q96QZ7 (parent)
# chain: TEELDSELELPAGWEKIEDPVYGIYYVDHINRKTQYENPVLEAKRKKQLE
# Variants of: B1
# Test: abundance fitness (aPCA) (normalised: wild type 0, dead -1); higher = more abundant; growth selection in yeast, the domain comes from the species named
# Settings: Homo sapiens
row,Variant,abundance fitness
1,K33E,-0.488 ± 0.083
2,D28Q,-0.934 ± 0.14
3,D28M,-1.14 ± 0.15
4,D28V,-1.24 ± 0.067
5,D28G,-1.07 ± 0.065
6,D28A,-1.16 ± 0.095
7,I24Y,-0.569 ± 0.14
8,I24H,-0.64 ± 0.22
9,I24K,-0.238 ± 0.097
10,Y25N,-0.447 ± 0.077
11,Y25D,-0.333 ± 0.085
12,Y25A,-0.278 ± 0.047
13,Y25V,-0.079 ± 0.054
14,P11S,-0.417 ± 0.039
15,P11D,-0.382 ± 0.11
16,P11F,-0.515 ± 0.072
17,P11R,-0.494 ± 0.047
18,P11N,-0.728 ± 0.14
19,V40A,0.068 ± 0.05
20,V40T,0.006 ± 0.08
21,V40F,-0.385 ± 0.1

row,Variant,abundance fitness
1,V40I,-0.197 ± 0.087
2,V40S,-0.026 ± 0.061
3,V40R,-0.099 ± 0.054
4,A43W,-0.231 ± 0.069
5,A12C,0.12 ± 0.085
6,A12E,0.129 ± 0.052
7,A12W,-0.104 ± 0.048
8,A12Q,-0.237 ± 0.096
9,A12H,0.07 ± 0.1
10,A12V,0.019 ± 0.068
11,A12G,-0.073 ± 0.057
12,N31C,-0.123 ± 0.077
13,N31H,-0.069 ± 0.075
14,Y26N,-0.54 ± 0.16
15,Y26R,-0.549 ± 0.047
16,Y26E,-0.213 ± 0.054
17,I30V,-0.064 ± 0.044
18,I30W,-0.431 ± 0.072
19,I30Q,-0.215 ± 0.047
20,I30E,-0.079 ± 0.071
21,I30F,-0.195 ± 0.041

row,Variant,abundance fitness
1,Y22W,-0.186 ± 0.077
2,Y22F,-0.122 ± 0.06
3,Y22E,-0.004 ± 0.06
4,Y22S,-0.035 ± 0.043
5,Y22M,-0.378 ± 0.099
6,L8T,-0.105 ± 0.097
7,L8D,-0.505 ± 0.046
8,L8E,-0.2 ± 0.058
9,L8A,-0.042 ± 0.049
10,L8P,-0.248 ± 0.083
11,E37D,-0.151 ± 0.079
12,E37T,-0.177 ± 0.057
13,T1C,-0.35 ± 0.26
14,T1G,-0.118 ± 0.056
15,T1S,0.004 ± 0.078
16,H29C,-0.502 ± 0.095
17,H29M,-0.386 ± 0.057
18,R45S,-0.067 ± 0.05
19,R45N,-0.363 ± 0.073
20,R45Y,-0.266 ± 0.045
21,R45C,-0.241 ± 0.082

row,Variant,abundance fitness
1,R45A,-0.193 ± 0.061
2,R45F,-0.248 ± 0.064
3,E2R,-0.095 ± 0.057
4,E2D,-0.314 ± 0.1
5,E2Y,-0.403 ± 0.24
6,E2H,-0.523 ± 0.24
7,E18D,-0.15 ± 0.073
8,E18V,-0.1 ± 0.068
9,E18G,-0.459 ± 0.047
10,E18A,-0.014 ± 0.069
11,E18N,-0.03 ± 0.097
12,E18H,-0.094 ± 0.086
13,G13Y,-0.183 ± 0.066
14,G13Q,-0.282 ± 0.048
15,I17N,-0.604 ± 0.14
16,I17M,-0.041 ± 0.048
17,I17Y,-0.06 ± 0.11
18,I17L,-0.065 ± 0.069
19,L10E,-0.654 ± 0.081
20,L10C,-0.37 ± 0.1
21,L10Q,-0.296 ± 0.046
